The target in assay [1] is T1, hLGR7 (UL-hLGR7-Cre-Luc reporter cell line) (human ('hLGR7')) (UniProt Q9HBX9).
T1 sequence (looked up): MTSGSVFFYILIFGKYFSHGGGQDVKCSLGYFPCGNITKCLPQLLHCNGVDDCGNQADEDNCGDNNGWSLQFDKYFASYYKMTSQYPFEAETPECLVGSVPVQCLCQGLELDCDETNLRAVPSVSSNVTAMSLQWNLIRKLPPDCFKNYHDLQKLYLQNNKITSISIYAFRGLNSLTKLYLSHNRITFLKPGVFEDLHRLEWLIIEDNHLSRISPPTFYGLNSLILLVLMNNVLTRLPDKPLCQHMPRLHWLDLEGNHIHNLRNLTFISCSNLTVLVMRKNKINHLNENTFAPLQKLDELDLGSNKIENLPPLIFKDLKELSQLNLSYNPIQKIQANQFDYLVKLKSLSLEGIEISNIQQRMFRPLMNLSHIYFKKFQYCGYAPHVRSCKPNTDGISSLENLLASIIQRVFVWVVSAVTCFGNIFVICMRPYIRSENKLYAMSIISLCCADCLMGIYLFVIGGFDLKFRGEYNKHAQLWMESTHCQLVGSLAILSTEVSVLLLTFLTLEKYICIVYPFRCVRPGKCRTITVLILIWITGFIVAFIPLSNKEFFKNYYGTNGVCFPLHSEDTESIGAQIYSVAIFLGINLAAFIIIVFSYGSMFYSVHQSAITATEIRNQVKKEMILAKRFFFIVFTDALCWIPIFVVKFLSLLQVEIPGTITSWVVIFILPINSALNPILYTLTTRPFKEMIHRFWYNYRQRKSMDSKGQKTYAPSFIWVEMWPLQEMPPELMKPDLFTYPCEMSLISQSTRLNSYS
Briefly: cell-based or functional assay.

The target of assay [2] is T2, relaxin receptor (LGR7).
T2 sequence (Q9HBX9 whole entry, species assumed, looked up): T1 sequence (looked up)
Briefly: cell-based or functional assay.

The target of assay [3] is T2, relaxin receptor (LGR7). Briefly: cell-based or functional assay. This is another data set of the same source.
Assay [4] has as its target RSV F protein (UniProt P03420). Put plainly: ELISA, 100 ng/well RSV F protein coated, HRP anti-human IgG (Fc specific), QuantaBlu fluorescence (10 min). On the technique in general: An ELISA detects its analyte on a solid surface through an enzyme-linked reagent.

Read-outs that look alike come from different tables or passages of the source.

One may read the Kd as a measure of binding affinity in units of concentration. Low values mean tighter binding, high ones weaker binding.

Sequence of RSV F protein (P03420 26-524): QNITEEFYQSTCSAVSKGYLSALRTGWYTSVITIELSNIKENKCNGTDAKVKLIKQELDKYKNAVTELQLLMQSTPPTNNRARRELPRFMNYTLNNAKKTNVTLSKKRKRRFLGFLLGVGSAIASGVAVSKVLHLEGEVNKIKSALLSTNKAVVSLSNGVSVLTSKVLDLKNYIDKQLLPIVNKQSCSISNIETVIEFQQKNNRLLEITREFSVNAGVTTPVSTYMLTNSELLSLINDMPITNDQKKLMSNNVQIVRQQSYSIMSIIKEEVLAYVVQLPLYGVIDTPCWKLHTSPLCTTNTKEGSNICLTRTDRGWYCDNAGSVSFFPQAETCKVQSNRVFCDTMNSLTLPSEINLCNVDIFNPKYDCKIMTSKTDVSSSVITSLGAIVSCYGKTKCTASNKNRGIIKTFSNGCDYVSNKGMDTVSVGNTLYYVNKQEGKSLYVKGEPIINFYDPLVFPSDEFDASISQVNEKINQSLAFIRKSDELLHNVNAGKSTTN

In assay [1], “relaxin-2 peptide (from UniProt P04090 25-185) (ligand)” displayed an EC50, UL-hLGR7-Cre-Luc reporter cell line of 0.02 nM and an SA of 1000 units/µg. In addition, the EC50, CRE-luciferase reporter assay in assay [2] was determined as 0.0223 nM. In addition, the EC50, CRE-luciferase reporter assay in assay [3] amounted to 0.022 nM.

Take Herceptin (antibody): the Kd in assay [4] stood at 1350 nM.

The record behind these values is patent publication US20190263882A1.
